Laboratory results from patent US20260069689A1 (Regeneron, published 2026).
Residue numbers refer to the chain shown, from its start.

B1: mAb14292 (antibody, V domains shown)
VH: EVQLVESGGGLVQPGGSLRLSCVASGFAFSTYEMNWVRQAPGKGLEWVSYISSSGSTIYYADSVKGRLTISRDNVKNSLYLQMNSLRVEDTAIYYCARDAIRNNDILTDPATFDPWGQGTLVTVSS
VL: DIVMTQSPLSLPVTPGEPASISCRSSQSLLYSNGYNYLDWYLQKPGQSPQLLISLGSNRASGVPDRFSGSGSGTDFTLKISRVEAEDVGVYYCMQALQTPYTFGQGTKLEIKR
B2: mAb15162 (antibody, V domains shown)
VH: EVQLVETGGGLIQPGGSLRLSCAASEFIVSRNYMSWVRQAPGKGLEWVSLIYSGGSTYYADSVKGRFTISRDNSKNILYLQMNSLRAEDTAVYYCARDRGGISDYWGQGTLVTVSS
VL: DIQMTQSPSSLSASVGDRVTITCQASQDINKYLNWFQQKPGKAPKLLIYDASNLETGVPSRFSGSGSGTDFTFTISSLQPEDIATYYCQQYDNLPRTFGQGTKLEIKR
B3: mAb14256 (antibody, V domains shown)
VH: QVQLQESGPGLVKPSETLSLTCTVSGGSISSHYWSWIRQPPGKGLEWIGYIYYSGSSNYNPSLKSRVTISVDTSKNQFSLKLNSVTAADTAVYYCARHYDILTGFDWFDPWGQGTLVTVSS
VL: QSVLTQPPSVSGAPGQRVTISCTGSSSNIGTHYDVHWYQQLPGTAPKLLIYGNSNRPSGVPDRFSGSKSGTSASLAITGLQAEDEADYYCQSFDNSLTAPYVFGTGTKVTVLG
B4: mAb14312 (antibody, V domains shown)
VH: EVQLVESGGGLVQPGGSLRLSCAASGFTVSRSYMTWVRQAPGKGLEWVSVIFTGGRTDHADSVKGRFTISRHNSKNTLYLQMNSLRTEDTAVYYCARVAIVGATGAFDIWGQGTMVTVSS
VL: QSVLTQPPSVSGAPGQRVTISCTGSSSNIGAGDDVHWYQQLPGTAPKLLIYGNSNRPSGVPDRFSGSKSGTSASLAITGLQAEDEADYYCQSYDSSLSGSVVFGGGTKLTVLG
B5: mAb15158 (antibody, V domains shown)
VH: EVQLVESGGGLVQPGGSLRLSCAASGFSFSSNWMSWVRQAPGKGLEWVGNINQDGSEKYYVDSVEGRFTISRDNAKKSLYLQMNSLRAEDTAVYYCARDLGVLWFGDFVDWGQGALVTVSS
VL: DIQMTQSPSSLSASVGDRVTITCRASQAISNSLAWYQQKPGKAPKLLLYAASTLESGVPSRFSGSGSGTDYTLTISSLQPEDFATYYCLQYYGSPRTFGQGTKVEIKR
B6: mAb15161 (antibody, V domains shown)
VH: EVQLVESGGGLVQPGGSLRLSCAASGFTFSSYEMNWVRQAPGKGLEWVSYISSSGSILYYADSVKGRFTASRDNAKNSLYLQMNSLRAEDTGVYYCARREYQLLRPFEFWGQGTLVTVSS
VL: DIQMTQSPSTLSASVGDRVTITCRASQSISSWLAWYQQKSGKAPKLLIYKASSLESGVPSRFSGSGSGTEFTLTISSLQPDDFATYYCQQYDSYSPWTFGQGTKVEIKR
B7: mAb14285 (antibody, V domains shown)
VH: QVQLVQSGAEVKKPGASVKVSCKASGYTFTGYFIHWVRQAPGQGLEWMGWISPISGGTNYAQKFQGRVTVTRDTSITTAYMELSRLTSDDTAVYHCAREGGTWKGDFDYWGQGTLVTVSS
VL: QSALTQPASVSGSPGQSITISCTGTSSDVESYNLVSWYQQHPGKAPKLMIYEGSKRPSGVSNRFSGSKSGNTASLTISGLQAEDEADYYCSSYAGSSTWVFGGGTKLTVLG
B8: mAb15164 (antibody, V domains shown)
VH: EVQLVESGGGLVQPGGSLRLSCAASGFAVSSNYMTWVRQAPGKGLEWVATIYSGDSTYYADSVKGRFTISRHNSKNTLSLQMNSLRADDTAIYYCARLSGVLSGTYNGAFDIWGQGTMVTVSS
VL: B7 VL with V29F, E30G, S31N, L34I, K44Q, L48V, S54N, N71H
B9: mAb15166 (antibody, V domains shown)
VH: EVQLVESGGGLVQPGGSLRLSCAASGFTVTSNYMSWVRQAPGKGLEWVSAIYSGESTYYADSVKGRFTISRDSSKNTLYLQMNSLRVEDTAVYYCASIHDYSNYVGGFDPWGQGTLVTVSS
VL: B7 VL with T25P, V29F, E30G, S54T
B10: mAb15165 (antibody, V domains shown)
VH: EVQLVESGGGLVQPGGSLRLSCAASGFTVSSNYMSWVRQAPGKGLEWVSAIYSGDSTYYADSVKGRFTISKDNSKNTLYLQMNSLRGEDTAVYYCARLGGALQAYDGAFDYWGQGTLATVSS
VL: B7 VL with V29F, E30G, S54N, N62I
B11: mAb15159 (antibody, V domains shown)
VH: EVQLVESGGGLVQPGGSLRLSCAASGITVSSNYMTWVRQAPGKGLEWVSLIYSGGSTFYADSVRGRFTISRDNSKNTLYLQMNSLRAEDTAVYYCARDLVVYGMDVWGQGTTVTVSS
VL: DIQLTQSPSSLSASVGDRVTITCRASQGISSYLAWYQQKPGKAPKLLIYAASTLQSGVPSRFSGSGSGTDFTLTISSLQPEDFATYYCQHLNSDPHTFGQGTKLEIKR
B12: mAb15156 (antibody, V domains shown)
VH: QLQLQESGPGLVKSSETLSLTCTVSASITGSTYYWGWIRQPPGKGLEWIGSIYYSGTTYYKASLKSRVTISVDTSKNQFSLKLTSVTVADTAVYYCVSHLLGNYHKYGMDVWGQGTTVTVSS
VL: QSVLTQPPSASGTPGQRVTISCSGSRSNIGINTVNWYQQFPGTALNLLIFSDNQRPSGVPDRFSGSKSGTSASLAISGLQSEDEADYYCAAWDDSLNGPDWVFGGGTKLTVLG
B13: mAb14282 (antibody, V domains shown)
VH: QVQLVQSGAEVKKPGASVKVSCKASGYIFTDHYMHWVRQAPGQGLEWMGWINPNSGATNYAQNFQGRVTMTRDTSIITVYMELSRLRSDDTAVYYCARDSSPYMIRYTMDVWGQGTTITVSS
VL: QSALTQPASVSGSPGQSITISCTGTSSDVGSYNLVSWYQQHPGKAPKLMIYELTKRPSGVSNRFSGSKSGNTASLTISGLQAEDEADYYCSSYRGSVTDVVFGGGTKLTVLG
B14: mAb15157 (antibody, V domains shown)
VH: EVQLVESGGALVQPGGSLRLSCAASGFPFTIYAMTWVRQAPGKGLEWVSVITGSGDSTYYADSVKGRFTISRDNSKNTLYLQMNSLRAEDTAVYYCVKTGEGFFYYYYGMDVWGQGTTVTVSS
VL: QSVLTQPPSVSAAPGQKVTISCSGSSSNIGNSYISWYQQLPGTAPKLLIYVNNKRPSGIPDRFSGSKSGTSATLGITGLQTGDEADYYCGTWDSSLSAGVFGSGTKVTVLG
B15: mAb14281 (antibody, V domains shown)
VH: QVQLVQSGADVKKPGASVKVSCKTSGYIFTGYYIHWVRQAPGQGLEWMGWINPNSGGTNSAQKFQGRVTMTRDTSISTVYMELSRLRSDDTAVYYCAKSNSFSVLDYNFDYWGQGTLVTVSS
VL: SSELTQDPAVSVALGQTVRITCQGDSLRSYYASWYQQKPGQAPVLVIYDKNNRPSGIPDRFSGSSSGNTASLTITGAQAEDEADYYCNSRDSSRNHLVVFGGGTKLTVLG
B16: mAb14230 (antibody, V domains shown)
VH: EVQLVESGGGLIQPGRSLRLSCAASGFTFDDYAMHWVRQAPGKGLEWVSGISWNSVSIDYADSVKGRFTISRDNAKNSLYLQMTSLTVEDTALYYCAKAFGYETLTGSDYFAYWGPGTLVTVSS
VL: EIVLTQSPGTLSLSPGERATLSCRASQTVISTYLAWYQQKPGQSPRLLIYGASSRATGIPDRFSGSGSGTDFTLTISRLEPEDFAVYYCQQYGSSPQLTFGGGTKVEIKR
B17: mAb14286 (antibody, V domains shown)
VH: QVQLVQSGAEVKKPGASVKVSCKASGYTFTDYFIHWVRQAPGQGLEWMGWINPTSGGTNYAQKFRGRVTMTRDTSISTAYVELSRLRSDDTALYYCARDLPFYSDTKQFDYWGQGTLVTVSS
VL: QSALTQPASVSGYPGQSITISCTGTSSDVGGYNYVSWYQQHPGKAPKLMIFDVSNRPSGVSNRFSGSKSGNTASLTFSGLQAEDEADYYCSSYTSSSTLVFGGGTKLTVLG
B18: mAb14234 (antibody, V domains shown)
VH: QVQLVESGGGVVQPGRSLRLSCAASGFTFSSYGIHWVRQAPGKGLEWVAIIWYDGSEKYYADSVKGRFTISRDNSKNTLFLQMNSLEAEDTAVYYCARGPDLLTGYYNYFYYGMDVWGQGTTVTVSS
VL: QSVLTQPPSVSGAPGQRVTISCTGSSSNIGIGYDVHWYQQLPGTVPKLLIYGNTNRPSGVPDRFSGSKSGTSASLAITGLQAEDEADYYCQSYDSSLSSYVFGTGTKVTVLG
B19: mAb14280 (antibody, V domains shown)
VH: QVQLVQSGAEVKKPGASVRVSCKASGYTFTGNYIHWVRQAPGQGLEWMAWINPNSGGKNYAQKFQGRVTLTRDTSVNTAYMELSRLRSDDTAMYYCARDVNYNILTGPGGLWGQGTLVTVSS
VL: QSALTQPPSASGSPGQSVTISCTGTSSDVGGYNFVSWYQQHPGKAPKLMIYEVSKRPSGVPDRFSGSKSGNTASLTVSGLQAEDEADYYCSSYAGSNNFVFGTGTKVTVLG
B20: mAb15163 (antibody, V domains shown)
VH: EVQLVETGGGLIQPGESLRLSCAASGFIVSTNYMNWVRQAPGKGLEWVSVIYRGGSTYYADSVKGRFTISRDNSKNTLFLQMNSLRAEDTAVYYCARGHEDFDYDTPASGAFDIWGQGTMVTVSS
VL: B19 VL with Y32H, F34Y, L48V, N98K

Target: SARS-COV-2 RBD extracellular domain expressed with a C-terminal myc-myc-hexahistidine tag (SARS-CoV-2)
Assay: SPR (Biacore), mAb captured by anti-human Fc, RBD-mmH in solution, 25 C

Binder | Kd [nM] | koff [s⁻¹] | kon [M⁻¹ s⁻¹] | t½ [min]
B1 | 40.9 | 0.0171 | 417000 | 0.7
B2 | 7.3 | 0.00085 | 116000 | 13.6
B3 | 8.32 | 0.00927 | 1.11e+06 | 1.2
B4 | 0.606 | 0.000929 | 1.53e+06 | 12.4
B5 | 0.779 | 8.12e-05 | 104000 | 142
B6 | 1.35 | 0.000234 | 173000 | 49.3
B7 | 11.7 | 0.0211 | 1.8e+06 | 0.5
B8 | 1.53 | 0.000349 | 228000 | 33.1
B9 | 21.7 | 0.00535 | 246000 | 2.2
B10 | 0.393 | 0.000212 | 539000 | 54.6
B11 | 2.66 | 0.00013 | 48900 | 88.8
B12 | 4.18 | 0.00121 | 289000 | 9.6
B13 | 4.97 | 0.00957 | 1.93e+06 | 1.2
B14 | 4.49 | 0.00125 | 278000 | 9.3
B15 | 5.02 | 0.00554 | 1.1e+06 | 2.1
B16 | 7.51 | 0.00852 | 1.13e+06 | 1.4
B17 | 3.22 | 0.0104 | 3.23e+06 | 1.1
B18 | 20.5 | 0.0113 | 550000 | 1
B19 | 15.4 | 0.0255 | 1.66e+06 | 0.5
B20 | 0.0779 | 1.67e-05 | 218000 | 693
